Results from US20060253917A1 (published 2006).

Assays:
[1] = biological target: T1, OsPN25381 aa 30-218 (Oryza sativa, UniProt A3BV82 165-353); assay: Y2H; output trait library
T1 construct: prey, AD fusion; also called Protein 13357265 Putative CorA-like Mg2+ Transporter Protein
T1 sequence: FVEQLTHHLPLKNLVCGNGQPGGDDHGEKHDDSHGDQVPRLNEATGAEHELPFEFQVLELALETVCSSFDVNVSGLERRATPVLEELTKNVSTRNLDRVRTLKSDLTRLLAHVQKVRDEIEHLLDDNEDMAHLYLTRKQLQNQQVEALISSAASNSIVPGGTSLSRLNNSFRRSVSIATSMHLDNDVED
Method in brief: (§1)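 Using an automated, high-throughput yeast two-hybrid assay provided by Myriad Genetics Inc. (Salt Lake City, Utah), protein-protein interactions were detected. Against either the input trait or the output trait rice prey library, a bait clone encoding a defined amino-acid fragment of a rice protein was screened. The encoding sequences of the prey clones that were retrieved were then compared against databases by BLAST to identify the interacting proteins.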

[2] = biological target: T2, OsPN29969 aa 16-123 (Oryza sativa, UniProt A2XK00 17-123); assay: Y2H; output trait library
T2 construct: prey, AD fusion; also called Novel Protein PN29969, Similar to A. thaliana Unknown Protein BAB01990
T2 sequence: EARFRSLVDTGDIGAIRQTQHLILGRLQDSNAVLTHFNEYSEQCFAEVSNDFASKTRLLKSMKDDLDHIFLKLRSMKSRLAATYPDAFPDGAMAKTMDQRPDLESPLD
Method in brief: as §1

[3] = biological target: T3, OsPN29965 aa 12-124 (Oryza sativa, UniProt Q6YZ52 874-986); assay: Y2H; output trait library
T3 construct: prey, AD fusion; also called Novel Protein PN29965, Fragment, Similar to A. thaliana Kinesin (Centromere Protein)-Like Heavy Chain-Like Protein
T3 sequence: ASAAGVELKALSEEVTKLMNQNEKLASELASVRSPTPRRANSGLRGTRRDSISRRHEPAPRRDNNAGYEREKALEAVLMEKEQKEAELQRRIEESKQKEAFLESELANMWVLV
Method in brief: as §1

[4] = biological target: T4, OsPN23390 aa 595-845 (Oryza sativa, UniProt Q7XPJ0 617-867); assay: Y2H; output trait library
T4 construct: prey, AD fusion
T4 sequence: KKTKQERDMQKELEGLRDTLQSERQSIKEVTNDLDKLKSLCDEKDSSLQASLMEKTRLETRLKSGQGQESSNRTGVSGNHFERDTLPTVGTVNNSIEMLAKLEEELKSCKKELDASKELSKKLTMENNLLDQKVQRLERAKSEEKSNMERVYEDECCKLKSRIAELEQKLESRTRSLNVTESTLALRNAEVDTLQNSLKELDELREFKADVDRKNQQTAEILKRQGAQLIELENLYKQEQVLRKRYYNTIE
Method in brief: as §1

[5] = biological target: T5, OsPN23390 aa 576-738 (Oryza sativa, UniProt Q7XPJ0 598-760); assay: Y2H; output trait library
T5 construct: prey, AD fusion
T5 sequence: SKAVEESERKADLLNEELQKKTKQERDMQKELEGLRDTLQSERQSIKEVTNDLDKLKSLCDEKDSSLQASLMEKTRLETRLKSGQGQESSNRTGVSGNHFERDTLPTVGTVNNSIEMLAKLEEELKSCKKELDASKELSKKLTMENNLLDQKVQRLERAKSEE
Method in brief: as §1

[6] = biological target: T6, OsPN29956 aa 2-373 (Oryza sativa, UniProt Q0JJ05 519-890); assay: Y2H; output trait library
T6 construct: prey, AD fusion
T6 sequence: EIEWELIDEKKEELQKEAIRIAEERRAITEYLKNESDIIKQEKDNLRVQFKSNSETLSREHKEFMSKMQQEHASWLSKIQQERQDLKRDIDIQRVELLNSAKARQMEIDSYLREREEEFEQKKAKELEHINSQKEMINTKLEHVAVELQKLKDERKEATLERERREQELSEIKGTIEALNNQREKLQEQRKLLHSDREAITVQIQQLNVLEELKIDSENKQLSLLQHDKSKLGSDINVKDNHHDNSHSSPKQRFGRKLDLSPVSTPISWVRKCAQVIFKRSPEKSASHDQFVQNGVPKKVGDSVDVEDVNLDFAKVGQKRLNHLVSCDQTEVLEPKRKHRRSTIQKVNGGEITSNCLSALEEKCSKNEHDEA
Method in brief: as §1

[7] = biological target: T7, PN29970 aa 1-158 (Oryza sativa, UniProt A2WY50 120-277); assay: Y2H; output trait library
T7 construct: prey, AD fusion; also called Putative CorA-like Mg2+ Transporter Protein
T7 sequence: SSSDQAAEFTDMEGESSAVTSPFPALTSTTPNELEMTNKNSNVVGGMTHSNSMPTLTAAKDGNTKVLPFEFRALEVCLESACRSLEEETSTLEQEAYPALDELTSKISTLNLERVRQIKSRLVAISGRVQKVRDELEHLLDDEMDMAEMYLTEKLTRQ
Method in brief: as §1

[8] = biological target: T8, OsPN29956 aa 96-235 (Oryza sativa, UniProt Q0JJ05 613-752); assay: Y2H; output trait library
T8 construct: prey, AD fusion; also called Novel Protein PN29956, Fragment, nuclear matrix constituent
T8 sequence: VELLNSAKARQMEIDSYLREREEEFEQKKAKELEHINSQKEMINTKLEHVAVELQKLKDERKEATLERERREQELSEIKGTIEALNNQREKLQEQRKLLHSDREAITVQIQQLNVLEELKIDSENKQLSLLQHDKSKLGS
Method in brief: as §1

[9] = biological target: T9, OsMADS1 aa 71-257 (Oryza sativa, UniProt A2XDY1 71-257); assay: Y2H; output trait library
T9 construct: prey, AD fusion; also called PN19788
T9 sequence: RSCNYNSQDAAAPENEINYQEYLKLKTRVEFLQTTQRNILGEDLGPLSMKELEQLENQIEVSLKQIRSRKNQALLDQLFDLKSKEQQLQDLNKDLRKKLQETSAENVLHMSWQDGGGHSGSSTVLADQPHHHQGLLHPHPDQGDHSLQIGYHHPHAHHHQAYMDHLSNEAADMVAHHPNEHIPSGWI
Method in brief: as §1

[10] = biological target: T10, OsMADS6 aa 70-250 (Oryza sativa, UniProt Q6EU39 70-250); assay: Y2H; output trait library
T10 construct: prey, AD fusion; also called PN20233; O. sativa MADS box protein MADS6
T10 sequence: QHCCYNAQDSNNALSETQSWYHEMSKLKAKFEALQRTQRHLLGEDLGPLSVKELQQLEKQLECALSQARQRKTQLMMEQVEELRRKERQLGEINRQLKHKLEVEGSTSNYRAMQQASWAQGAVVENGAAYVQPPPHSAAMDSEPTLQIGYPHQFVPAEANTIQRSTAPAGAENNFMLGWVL
Method in brief: as §1

[11] = biological target: T11, OsFDRMADS6 aa 93-244 (Oryza sativa, UniProt P0C5B1 93-244); assay: Y2H; output trait library
T11 construct: prey, AD fusion; also called PN19766
T11 sequence: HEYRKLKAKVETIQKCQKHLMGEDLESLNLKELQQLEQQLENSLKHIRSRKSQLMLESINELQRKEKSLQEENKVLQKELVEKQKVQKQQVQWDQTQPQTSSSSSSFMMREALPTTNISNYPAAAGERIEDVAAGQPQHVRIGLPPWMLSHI
Method in brief: as §1

[12] = biological target: T12, OsRAP1B aa 1-158 (Oryza sativa, UniProt Q10CQ1 1-158); assay: Y2H; output trait library
T12 construct: prey, AD fusion; also called PN20232; O. sativa AP1-like MADS box protein RAP1B
T12 sequence: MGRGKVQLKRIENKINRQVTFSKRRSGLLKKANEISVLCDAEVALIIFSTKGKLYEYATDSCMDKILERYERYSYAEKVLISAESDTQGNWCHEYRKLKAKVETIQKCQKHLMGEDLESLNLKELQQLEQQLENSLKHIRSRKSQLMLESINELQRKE
Method in brief: as §1

[13] = biological target: T13, OsMADS1 aa 82-241 (Oryza sativa, UniProt A2XDY1 82-241); assay: Y2H; output trait library
T13 construct: prey, AD fusion; also called PN19788; O. sativa MADS box protein MADS1
T13 sequence: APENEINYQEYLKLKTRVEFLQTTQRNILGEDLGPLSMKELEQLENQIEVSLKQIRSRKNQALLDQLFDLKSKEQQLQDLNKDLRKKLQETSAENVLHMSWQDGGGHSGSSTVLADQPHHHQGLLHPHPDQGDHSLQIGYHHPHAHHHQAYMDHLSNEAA
Method in brief: as §1

[14] = biological target: T14, OsMADS1 aa 74-172 (Oryza sativa, UniProt A2XDY1 74-172); assay: Y2H; input trait library
T14 construct: prey, AD fusion; also called PN19788
T14 sequence: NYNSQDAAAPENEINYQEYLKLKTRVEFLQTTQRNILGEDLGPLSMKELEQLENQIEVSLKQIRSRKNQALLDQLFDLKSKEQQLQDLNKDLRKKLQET
Method in brief: as §1

Measured: binding result

B1: OsCYCOS2 aa 50-233 (other)
chain: KRGLLDKPAAKNQSGHRPMTRKFAATLANQPSIAPLAPIGSERQKRTADSAFHGPADMECTKITSDDLPLPMMSEMDEVMGSELKEIEMEDIEEAAPDIDSCDANNSLAVVEYVDEIYSFYRRSEGLSCVSPNYMLSQNDINEKMRGILIDWLIEVHYKLELLDETLFLTVNIIDRFLARENVV
notes: bait, Gal4 DBD fusion; also called PN20257; O. sativa Cyclin OsCYCOS2
binds: [1] | [2] | [3] | [4] | [5] | [6] | [7] | [8]

B2: OsMADS45 aa 50-198 (other)
chain: NRGKLYEFCSTQSMTKTLEKYQKCSYAGPETAVQNRESEQLKASRNEYLKLKARVENLQRTQRNLLGEDLDSLGIKELESLEKQLDSSLKHVRTTRTKHLVDQLTELQRKEQMVSEANRCLRRKLEESNHVRGQQVWEQGCNLIGYERQ
notes: bait, Gal4 DBD fusion; also called PN20231; O. sativa MADS box protein MADS45
binds: [9] | [10] | [11] | [12] | [13]

B3: OsRAP1B aa 65-200 (other)
chain: KILERYERYSYAEKVLISAESDTQGNWCHEYRKLKAKVETIQKCQKHLMGEDLESLNLKELQQLEQQLENSLKHIRSRKSQLMLESINELQRKEKSLQEENKVLQKELVEKQKVQKQQLQWDQTQPQTISSSSSFM
notes: bait, Gal4 DBD fusion; also called PN20232
binds: [14]
